Source: paper PMC4762007, “Insight into Coenzyme A cofactor binding and the mechanism of acyl-transfer in an acylating aldehyde dehydrogenase from Clostridium phytofermentans” (Scientific Reports, 2016)
One block for each molecule: values may come before it.

Key:
Cphy1178(20–462) [1] = target: T1, Cphy1178(20–462) (Lachnoclostridium phytofermentans, UniProt A9KN57); assay: LC-MS detection of propionyl-CoA; type: biochemical; conditions: 100 µM CoA, 75 µM NAD+, 10 mM propionaldehyde, 100 mM KCl, pH 8.0, room temperature
T1 construct: gene Cphy_1178; E. coli BL21(DE3), pET28a; tag state not clearly stated; tetramer 4 x 47,452 Da; also misprinted as 20-426
T1 sequence (A9KN57 20-462): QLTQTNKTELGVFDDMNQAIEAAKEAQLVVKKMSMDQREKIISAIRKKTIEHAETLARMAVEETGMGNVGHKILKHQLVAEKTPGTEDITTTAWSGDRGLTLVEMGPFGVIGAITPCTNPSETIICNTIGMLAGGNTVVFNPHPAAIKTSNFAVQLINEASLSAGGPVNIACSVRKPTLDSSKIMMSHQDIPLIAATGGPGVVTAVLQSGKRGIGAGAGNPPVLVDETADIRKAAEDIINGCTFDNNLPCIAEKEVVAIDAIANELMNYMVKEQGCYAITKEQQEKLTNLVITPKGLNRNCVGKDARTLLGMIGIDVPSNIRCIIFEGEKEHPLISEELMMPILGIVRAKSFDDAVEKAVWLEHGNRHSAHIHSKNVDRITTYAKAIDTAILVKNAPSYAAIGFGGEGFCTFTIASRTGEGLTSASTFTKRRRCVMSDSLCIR

Cphy1178(20–462) [2] = target: T1, Cphy1178(20–462); assay: NADH formation; type: biochemical; conditions: substrate inhibition; 0.66 mM NAD+, 100 mM KCl, 10 mM 2-mercaptoethanol, no CoA, pH 8.0, 21 °C
[3] = target: Cphy1178(20–462), acylating aldehyde dehydrogenase from the Clostridium phytofermentans fucose/rhamnose utilisation BMC, N-terminal truncation (Clostridium phytofermentans); assay: native MS; nano-ESI ion-mobility MS (Synapt G2); protein buffer-exchanged into 100 mM ammonium acetate pH 7.0; tetramer
[4] = target: Cphy1178(20–462), acylating aldehyde dehydrogenase from the Clostridium phytofermentans fucose/rhamnose utilisation BMC, N-terminal truncation (Clostridium phytofermentans); assay: native MS; solution-phase disassembly: tetramer disrupted by addition of 40% methanol (v/v) prior to MS analysis; tetramer to dimers and monomers
[5] = target: Cphy1178(20–462), acylating aldehyde dehydrogenase from the Clostridium phytofermentans fucose/rhamnose utilisation BMC, N-terminal truncation (Clostridium phytofermentans); assay: crystal structure; X-ray, space group I 41 2 2, one chain in the asymmetric unit; tetramer generated by crystal symmetry (D2); crystals from 0.1 M sodium acetate pH 4.7, 1.8 M ammonium sulphate, soaked with 10 mM NAD+
Cphy1178(20–462) [6] = target: T1, Cphy1178(20–462); assay: LC-MS; type: biochemical; conditions: 100 µM CoA, 75 µM NAD+, 10 mM propionaldehyde, 100 mM KCl, pH 8.0, room temperature
purified protein [7] = substrate: CCCCCC=O; assay: purified protein; conditions: 0.66 mM NAD+, 100 mM KCl, 10 mM 2-mercaptoethanol, no CoA, pH 8.0, 21 °C
purified protein [8] = substrate: CC=O; assay: purified protein; type: biochemical, Lachnoclostridium phytofermentans; conditions: 0.66 mM NAD+, 100 mM KCl, 10 mM 2-mercaptoethanol, no CoA, pH 8.0, 21 °C
purified protein [9] = substrate: CCC=O; assay: purified protein; type: biochemical, Lachnoclostridium phytofermentans; conditions: 0.66 mM NAD+, 100 mM KCl, 10 mM 2-mercaptoethanol, no CoA, pH 8.0, 21 °C
purified protein [10] = substrate: CCCC=O; assay: purified protein; type: biochemical, Lachnoclostridium phytofermentans; conditions: 0.66 mM NAD+, 100 mM KCl, 10 mM 2-mercaptoethanol, no CoA, pH 8.0, 21 °C
purified protein [11] = substrate: CCCCC=O; assay: purified protein; type: biochemical, Lachnoclostridium phytofermentans; conditions: 0.66 mM NAD+, 100 mM KCl, 10 mM 2-mercaptoethanol, no CoA, pH 8.0, 21 °C

Molecule: CC(C)(COP(=O)(O)OP(=O)(O)OC[C@H]1O[C@@H](n2cnc3c(N)ncnc32)[C@H](O)[C@@H]1OP(=O)(O)O)[C@@H](O)C(=O)NCCC(=O)NCCS [CoA]
- LC-MS detection of propionyl-CoA (Cphy1178(20–462) [1]): reaction mixtures containing NAD^+ and CoA

Molecule: CCC(=O)SCCNC(=O)CCNC(=O)[C@H](O)C(C)(C)COP(=O)(O)OP(=O)(O)OC[C@H]1O[C@@H](n2cnc3c(N)ncnc32)[C@H](O)[C@@H]1OP(=O)(O)O [propionyl-CoA]
- LC-MS (Cphy1178(20–462) [6]): LC-MS analysis confirmed the presence of the propionyl-CoA product

B1: Cphy1178(20–462) (Lachnoclostridium phytofermentans ISDg) (protein)
chain: T1 sequence (A9KN57 20-462)
notes: E. coli BL21(DE3), pET28a; tag state not clearly stated; tetramer 4 x 47,452 Da; also misprinted as 20-426
- Km (purified protein [7]): 2900 ± 100 µM
- kcat (purified protein [7]): 5.61 s⁻¹
- kcat/Km (purified protein [7]): 1930 M⁻¹ s⁻¹
- Km (purified protein [8]): 5160 ± 100 µM
- kcat (purified protein [8]): 1.62 ± 0.02 s⁻¹
- kcat/Km (purified protein [8]): 310 M⁻¹ s⁻¹
- Km (purified protein [9]): 820 ± 20 µM
- kcat (purified protein [9]): 3.45 ± 0.03 s⁻¹
- kcat/Km (purified protein [9]): 4210 M⁻¹ s⁻¹
- Km (purified protein [10]): 1740 ± 70 µM
- kcat (purified protein [10]): 3.44 ± 0.7 s⁻¹
- kcat/Km (purified protein [10]): 1980 M⁻¹ s⁻¹
- Km (purified protein [11]): 2200 ± 700 µM
- kcat (purified protein [11]): 5.44 ± 0.1 s⁻¹
- kcat/Km (purified protein [11]): 2470 M⁻¹ s⁻¹

Next, values leading:

- Ki (Cphy1178(20–462) [2]): 23.52 ± 1.28 mM
Molecule: CCCCCC=O [Hexanaldehyde]

- Ki (Cphy1178(20–462) [2]): 17.31 ± 0.46 mM
Molecule: CCC=O [Propionaldehyde]

- Ki (Cphy1178(20–462) [2]): 12.61 ± 0.46 mM
Molecule: CCCCC=O [Pentanaldehyde]

- stoichiometry N [3]: 4
- stoichiometry N [4]: 2
- stoichiometry N [5]: 4
Molecule: Cphy1178(20–462), acylating aldehyde dehydrogenase from the Clostridium phytofermentans fucose/rhamnose utilisation BMC, N-terminal truncation (enzyme)
